The text below walks through data of patent US20220411492A1 (QILU PHARMACEUTICAL, published 2022).

Positions count from the first letter of the chain named.

A word on the EC50: it is the concentration at which the effect is half-maximal.

Sequences and labels used below:
B1: ch-126A11 (antibody, V domains shown)
VH: QVQLKESGPGLVAPSQSLSITCTVSEFSLTTYGVSWVRQPPGKGLEWLGVIWGDGSTNYHSALISRLSISKDTSKSQVFLKLNSLQTDDTATYYCAKPGLRNAMDYWGQGTSVTVSS
VL: DIVMTQSPSSLSVSAGEKVTMSCKSSQSLLNSGNQKNYLAWYQQKPGQPPKLLIYGASTRESGVPDRFTGSGSGTDFTLTISSVQAEDLAVYYCQNDLIYPLTFGAGTKLELK
notes: also called chimeric antibody of clone 126A11
B2: ch-48H1 (antibody, V domains shown)
VH: QVQLQQPGAELVKPGTSVKLSCKASGYIFTNYWTHWMKQRPGQGLEWIGMIHPNSGSSNYNEKFKSKATLTVDRSSSTVYMQLRRLTSEDSAVYYCTRIHYGNSMDYWGQGTSVTVSS
VL: DIVMTQSPSSLTVTAGEKVTMSCKSSQSLFNSGNQKNYLTWYQQKPGQPPKLLIYWASTWESGVPDRFTGSGSGTDFTLTISSVQAEDLAVYYCQNAYSYPFTFGSGTKLEIK
notes: also called chimeric antibody of clone 48H1
B3: ch-252F11 (antibody, V domains shown)
VH: EIQLVESGGGLVRPGGSLKLSCAASGFSFKNYVMSWVRQSPERRLEWVAEIRTGGDYTYYVDTVTGRFTISRDNAKNTLYLEMTSLRSEDTATYYCARVGYGNSLDYWGQGTTLTVSS
VL: B1 VL with S12T, S14T, A40T, G56W, Y93S, D97N, L98Y, I99F, K109E
notes: also called chimeric antibody of clone 252F11
B4: ch-239E9 (antibody, V domains shown)
VH: QVQLQQSGPELVRPGVSVKISCKGSSYTFTDYTMHWVKQSHAKSLEWIGFIGVYYGNTNYNQKFKGKATMTVDKSSSTAYMELARLTSEDSAVYYCARIGRGNAMDYWGQGTSVTVSS
VL: B2 VL with F30L, W60R, Y93N
notes: also called chimeric antibody of clone 239E9
B5: ch-39C8 (antibody, V domains shown)
VH: QVQLQQSGAGLVKPGASVKISCKASGYAFSSYWMIWVKQRPGKGLEWIGQIYPGDGDTNYNGKFKGKATLTADKSSSTAFMQLSSLTSEDSAVYFCTRIYYGNAFAYWGQGTLVTVSA
VL: B2 VL with F30L, W60R, A97D
notes: also called chimeric antibody of clone 39C8
B6: ch-37G8 (antibody, V domains shown)
VH: EVQLQQSGPVLVKPGASVKMSCKASGYTFSDYHMNWVKQSHGKSLEWVGLINPYNGGIRFNQKFKGKATLTVDKSSSTAYMELNSLTSEDSAVYYCATIYYGNSFAYWGQGTLVTVSA
VL: B2 VL with M21L, S22T, S26G, F30L, W60R, S83G, A97D, S99F, F102Y, S106G
notes: also called chimeric antibody of clone 37G8
B7: ch-40G7 (antibody, V domains shown)
VH: QVQLQQPGTELVKPGASVKLSCKASGYTFTNYWMHWVKQRPGHGLEWIGMIHPNSYSTNYNEKFRSKATLTVDKSSSTAYMQLSSLTSEDSAVYYCTRIYYGNAMDYWGQGTSVTVSS
VL: B2 VL with K18R, Q43H, S58F, W60R, S82R, A97D
notes: also called chimeric antibody of clone 40G7
B8: ch-32G8 (antibody, V domains shown)
VH: B6 VH with Q3H, S30T, V48I, L50V, F60Y
VL: B2 VL with F30L, W60R, A97N, S99I, S106G, K113R
notes: also called chimeric antibody of clone 32G8
B9: ch-229C9 (antibody, V domains shown)
VH: DVQLQESGPDLVKPSQSLSLICTVTGYSITSGYSWHWIRQFPGNKLEWMGYIHYSGGTNYNPSLKSRISFTRDTSKNQFFLQLNSVTTEDTATYYCARLERGNSFAYWGQGTLVTVSA
VL: B2 VL with S26T, F30L, W60R, V84L, A97D, S99F
notes: also called chimeric antibody of clone 229C9
B10: ch-42D2 (antibody, V domains shown)
VH: B6 VH with S30T, H33Q, V48I, L50F, F60Y, Y101F, Y107N
VL: B2 VL with S25P, F30L, K51R, W60R, A97D, S99I, F102Y, S106G, K109N
notes: also called chimeric antibody of clone 42D2
B11: ch-43F5 (antibody, V domains shown)
VH: B2 VH with I28T, N31S, M37V, R74K, V79A, S104A
VL: B2 VL with S22T, F30L, W60R, V91I, A97D, Y100F
notes: also called chimeric antibody of clone 43F5
B12: ch-76D11 (antibody, V domains shown)
VH: QVQLQQSGAELMKPGASVKLSCKASGYTFTGYWIEWIKQRPGHGLEWIGEILPGSGSIKYNEKFKDKATFTADTSSNTAYMQLSSLTTEDSAIYYCARKGLRGNSFDYWGQGTTLTVSS
VL: B2 VL with F30L, L52R, W60R, A97D, S99Y
notes: also called chimeric antibody of clone 76D11

The first test deals with T1, human Claudin 18.2 (hCLDN18.2) (human, UniProt P56856-2 1-261).
T1 construct: whole, on cells; also called CLDN18A2; claudin 18 splice variant 2
The test is described as follows: FACS, PDX-hCLDN18.2 gastric cancer tumor tissue-derived cells. The source says: (§1) FACS was used to detect the binding of anti-CLDN18.2 chimeric antibodies to HEK293 cells stably transfected expressing hCLDN18.2 (HEK293-hCLDN18.2) and gastric cancer tumor tissue-derived cells naturally expressing hCLDN18.2 (PDX-hCLDN18.2).
On the technique in general: A flow cytometer gives signals particle by particle.
Regarding B1, it took 15 nM to reach a half-maximal effect (EC50) and the “Mean maximum fluorescence intensity (Top MFI)” value is 17100 MFI.
Consider B2, for which a half-maximal effect (EC50) was put at 5.59 nM and the “Mean maximum fluorescence intensity (Top MFI)” value stood at 13600 MFI.
For B3, a half-maximal effect (EC50) was put at 15.8 nM and the “Mean maximum fluorescence intensity (Top MFI)” value was 16500 MFI.
Take B4: the EC50 is 4.55 nM and the “Mean maximum fluorescence intensity (Top MFI)” value worked out at 14600 MFI.
With B5, a half-maximal response (EC50) required 20.1 nM and the “Mean maximum fluorescence intensity (Top MFI)” value was 17500 MFI.
For B6, a half-maximal response (EC50) required 7 nM and the “Mean maximum fluorescence intensity (Top MFI)” value came to 14400 MFI.
For B7, in that order: 7.69 nM and 10100 MFI.
For B8, the EC50 was found to be 5.39 nM and the “Mean maximum fluorescence intensity (Top MFI)” value worked out at 14800 MFI.
For B9, the midpoint of the response, the EC50, lay at 10.7 nM and the “Mean maximum fluorescence intensity (Top MFI)” value worked out at 15700 MFI.
For B10 the same measures were 7.42 nM and 15700 MFI.
For B11 the same measures were 5.35 nM and 7620 MFI.
For B12 the same measures were 12.3 nM and 16800 MFI.

The next test concerns the target T1, human Claudin 18.2 (hCLDN18.2). Briefly: cell-based or functional assay.
B1: the “ADCC EC50” value turned out to be 0.01 µg/mL and the “ADCC Maximum lysis (%)” value worked out at 36.6%.
Take B2: the “ADCC EC50” value was found to be 0.011 µg/mL and the “ADCC Maximum lysis (%)” value worked out at 44.7%.
With B3, the “ADCC EC50” value stood at 0.022 µg/mL and the “ADCC Maximum lysis (%)” value was 31.1%.
For B4, in that order: 0.021 µg/mL and 36.7%.
For B5 the same measures were 0.022 µg/mL and 34.5%.
Regarding B6, the “ADCC EC50” value worked out at 0.022 µg/mL and the “ADCC Maximum lysis (%)” value was 31.7%.
Take B7: the “ADCC EC50” value amounted to 0.018 µg/mL and the “ADCC Maximum lysis (%)” value turned out to be 32.7%.
With B8, the “ADCC EC50” value amounted to 0.019 µg/mL and the “ADCC Maximum lysis (%)” value was determined as 46.8%.
Take B9: the “ADCC EC50” value turned out to be 0.023 µg/mL and the “ADCC Maximum lysis (%)” value was 29.1%.
In the case of B10, the “ADCC EC50” value turned out to be 0.02 µg/mL and the “ADCC Maximum lysis (%)” value was found to be 39.1%.
Turning to B11, the “ADCC EC50” value is 0.064 µg/mL and the “ADCC Maximum lysis (%)” value came out at 48.5%.
In the case of B12, the “ADCC EC50” value was 0.021 µg/mL and the “ADCC Maximum lysis (%)” value stood at 45.6%.

For another test, the target named is murine CLDN18.2 (mCLDN18.2) (murine) (UniProt P56857). Briefly: FACS, HEK293-mCLDN18.2 cells.
Regarding B1, the EC50 is 0.573 nM and the Mean maximum fluorescence intensity (Top MFI) is 7640 MFI.
As for B2, the 50% effective concentration (EC50) stood at 1.76 nM and the Mean maximum fluorescence intensity (Top MFI) came to 14800 MFI.
As for B3, the EC50 came to 0.948 nM and the Mean maximum fluorescence intensity (Top MFI) stood at 8980 MFI.
With B4, the concentration for a half-maximal effect (EC50) came out at 1.24 nM and the Mean maximum fluorescence intensity (Top MFI) stood at 12700 MFI.
For B5 the same measures were 1.63 nM and 10600 MFI.
In turn, B6 had an EC50 of 1.71 nM and a Mean maximum fluorescence intensity (Top MFI) of 8930 MFI.
Molecule B7 showed a concentration giving a half-maximal response (EC50) of 1.11 nM and a Mean maximum fluorescence intensity (Top MFI) of 10000 MFI.
For B8, in that order: 0.84 nM and 6870 MFI.
As for B9, the concentration for a half-maximal effect (EC50) was determined as 1.19 nM and the Mean maximum fluorescence intensity (Top MFI) worked out at 12700 MFI.
As to B10, the EC50 was found to be 0.764 nM and the Mean maximum fluorescence intensity (Top MFI) was determined as 7400 MFI.
B11 gave an EC50 of 1.13 nM and a Mean maximum fluorescence intensity (Top MFI) of 6090 MFI.
B12 returned a concentration giving a half-maximal response (EC50) of 0.702 nM and a Mean maximum fluorescence intensity (Top MFI) of 6340 MFI.

A further test addresses T1, human Claudin 18.2 (hCLDN18.2). The test is described as follows: cell-based or functional assay. The source holds these as a separate data set.
In the case of B1, the “CDC EC50” value came to 0.065 µg/mL and the “CDC Maximum lysis (%)” value amounted to 95%.
As for B2, the “CDC EC50” value was 0.17 µg/mL and the “CDC Maximum lysis (%)” value amounted to 94.3%.
For B3, in that order: 0.179 µg/mL and 95.4%.
For B4 the same measures were 0.139 µg/mL and 94.8%.
For B5, in that order: 0.177 µg/mL and 94.8%.
For the molecule B6, the “CDC EC50” value came to 0.16 µg/mL and the “CDC Maximum lysis (%)” value was 92.9%.
B7: the “CDC EC50” value was 0.38 µg/mL and the “CDC Maximum lysis (%)” value worked out at 89.1%.
For the molecule B8, the “CDC EC50” value stood at 0.108 µg/mL and the “CDC Maximum lysis (%)” value was 93.8%.
Take B9: the “CDC EC50” value was found to be 0.165 µg/mL and the “CDC Maximum lysis (%)” value was found to be 96.1%.
As for B10, the “CDC EC50” value was 0.13 µg/mL and the “CDC Maximum lysis (%)” value is 94.5%.
With B11, the “CDC EC50” value stood at 0.206 µg/mL and the “CDC Maximum lysis (%)” value amounted to 89.8%.
B12: the “CDC EC50” value stood at 0.108 µg/mL and the “CDC Maximum lysis (%)” value came to 95.4%.

For a further test the target is unchanged. The test is described as follows: FACS, HEK293-hCLDN18.2 cells.
From the text: as §1
B1: the midpoint of the response, the EC50, lay at 2.12 nM and the “Mean maximum fluorescence intensity (Top MFI)” value was found to be 9970 MFI.
On to B2, for which the concentration giving a half-maximal response (EC50) turned out to be 2.92 nM and the “Mean maximum fluorescence intensity (Top MFI)” value turned out to be 9480 MFI.
For the molecule B3, the EC50 came to 2.2 nM and the “Mean maximum fluorescence intensity (Top MFI)” value is 8380 MFI.
B4: it took 2.31 nM to reach a half-maximal effect (EC50) and the “Mean maximum fluorescence intensity (Top MFI)” value was determined as 9270 MFI.
Consider B5, for which the half-maximal effective concentration (EC50) amounted to 2.7 nM and the “Mean maximum fluorescence intensity (Top MFI)” value came out at 7820 MFI.
In the case of B6, the EC50 was 5.05 nM and the “Mean maximum fluorescence intensity (Top MFI)” value came to 10400 MFI.
On to B7, for which the half-maximal effective concentration (EC50) was 2.31 nM and the “Mean maximum fluorescence intensity (Top MFI)” value is 7470 MFI.
For B8 the same measures were 2.66 nM and 8640 MFI.
For B9 the same measures were 2.46 nM and 9870 MFI.
Turning to B10, a half-maximal response (EC50) required 2.42 nM and the “Mean maximum fluorescence intensity (Top MFI)” value stood at 10400 MFI.
Consider B11, for which the midpoint of the response, the EC50, lay at 1.51 nM and the “Mean maximum fluorescence intensity (Top MFI)” value amounted to 5590 MFI.
On to B12, for which the half-maximal effective concentration (EC50) is 2.46 nM and the “Mean maximum fluorescence intensity (Top MFI)” value was found to be 8720 MFI.
